Experimental data reported in patent US20130280807A1, “CELL CULTURE CHAMBER, METHOD FOR PRODUCING SAME, TISSUE MODEL USING CELL CULTURE CHAMBER, AND METHOD FOR PRODUCING SAME” (priority 2010, published 2013).

Test system: PC-12 cells
Assay: Neurite extension of PC-12 cells by the effect of NGF through membrane
Format: cell-based
Settings: 2 days
Procedure: The vitrigel chamber was hung and held in the container (FIGS. 5, (A) and (B)), and PC-12 cells suspended in a culture medium [Dulbecco's modified Eagle's culture medium (GIBCO BRL #11885-084) containing 10% inactivated fetal bovine serum (Sigma #F2442), 20 mM HEPES (GIBCO BRL #15630), 100 units/ml penicillin, and 100 μg/ml streptomycin] were seeded in 2.5×10^3 cells/cm^2 in the vitrigel chamber. A culture medium (1.2 ml), either containing NGF (upstate #01-125; 5 ng/ml) or by itself, was also injected into the container (FIG. 13).
The same experiment was conducted with the commercially available collagen membrane chamber (Koken; permeable collagen membrane #CM-24 for cell culture).

B1: NGF: NGF (upstate #01-125; 5 ng/ml) added to culture medium, acting on PC-12 cells (protein, UniProt P01139 122-241, looked up)
Beta-nerve growth factor: SSTHPVFHMGEFSVCDSVSVWVGDKTTATDIKGKEVTVLAEVNINNSVFRQYFFETKCRASNPVESGCRGIDSKHWNSYCTTTHTFVKALTTDEKQAAWRFIRIDTACVCVLSRKATRRG
modifications: Beta-nerve growth factor
notes: NGF (upstate #01-125; 5 ng/ml) added to culture medium, acting on PC-12 cells
neurite extension of PC-12 cells (cell morphology, phase-contrast microscope) (commercially available collagen membrane chamber (Koken #CM-24), NGF in container): neurite extension was not confirmed | neurite extension of PC-12 cells (cell morphology, phase-contrast microscope) (vitrigel chamber, NGF 5 ng/ml in culture medium in container, acting through vitrigel membrane): neurite extension was confirmed
